In patent publication US20170335007A1 (Xencor, published 2017):
Changes are numbered by the printed parent chain. Values belong to the binder of their own block, whether it stands above or below them.

Experiments:
[1] = molecular target: T1, human CD39 expressed on cells (human, UniProt P49961 1-510); test: cell-based or functional assay
T1 sequence: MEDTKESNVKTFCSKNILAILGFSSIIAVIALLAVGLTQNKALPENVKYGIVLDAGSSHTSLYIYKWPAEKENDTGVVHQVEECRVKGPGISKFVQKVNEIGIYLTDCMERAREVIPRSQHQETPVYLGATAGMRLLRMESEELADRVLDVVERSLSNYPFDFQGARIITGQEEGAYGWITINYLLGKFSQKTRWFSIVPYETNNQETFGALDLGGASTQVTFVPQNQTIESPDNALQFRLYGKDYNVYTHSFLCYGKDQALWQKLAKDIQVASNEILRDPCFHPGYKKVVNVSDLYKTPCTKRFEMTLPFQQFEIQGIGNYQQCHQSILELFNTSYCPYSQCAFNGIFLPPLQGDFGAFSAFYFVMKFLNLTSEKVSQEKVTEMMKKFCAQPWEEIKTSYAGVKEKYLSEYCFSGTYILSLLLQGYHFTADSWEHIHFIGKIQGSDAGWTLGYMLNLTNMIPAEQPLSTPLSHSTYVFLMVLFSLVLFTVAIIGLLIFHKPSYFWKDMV

[2] = molecular target: T2, recombinant human CD39 (R&D Systems) (human, UniProt P49961 38-478); test: SPR (ProteOn XPR36); antibody captured by anti-mouse antibody, CD39 in solution, 1:1 fit; ProteOn XPR36 SPR, Table 9
T2 construct: bought; also called CD39 antigen (R&D Systems); ENTPD1
T2 sequence: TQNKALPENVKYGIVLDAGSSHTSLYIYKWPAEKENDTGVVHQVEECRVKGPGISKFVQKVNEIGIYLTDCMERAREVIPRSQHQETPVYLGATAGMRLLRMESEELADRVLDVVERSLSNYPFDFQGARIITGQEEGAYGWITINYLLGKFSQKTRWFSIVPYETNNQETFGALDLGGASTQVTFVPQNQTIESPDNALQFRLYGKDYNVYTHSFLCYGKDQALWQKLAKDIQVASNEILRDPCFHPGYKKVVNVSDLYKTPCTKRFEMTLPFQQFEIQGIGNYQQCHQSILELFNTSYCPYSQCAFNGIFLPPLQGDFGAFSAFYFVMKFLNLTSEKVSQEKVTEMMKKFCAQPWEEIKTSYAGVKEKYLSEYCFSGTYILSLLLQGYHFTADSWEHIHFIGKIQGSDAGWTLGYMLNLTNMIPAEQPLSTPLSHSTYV
Procedure: (§1) Affinity measurements of four exemplary purified anti-CD39 antibodies (5-13A, 5-71A, 5-165C and 9-31A) were also carried on the ProteOn XPR36 (BioRad) using a GLM sensor chip. The running buffer contained 10 mM HEPES, 150 mM NaCl, 0.005% Tween-20 at pH 7.4. All data were collected at 25 degrees C. Anti-mouse capturing antibody was amine coupled at four densities on flow cells using standard s—NHS/EDC activation. A dilution series of […], 16.6, 5.5 and 1.85 nM CD39 antigen (R&D Systems) was tested for binding to the anti-CD39 antibody surfaces. The data were processed by subtracting the response from the inter-reference surfaces as well as the buffer blank injection. The processed response data from four density surfaces were globally fit to a simple 1:1 interaction model using Scrubber 2 (Biologic Software Pty Ltd).

[3] = molecular target: T1, human CD39 expressed on cells; test: flow cytometry on JVM-13 cells (endogenous human CD39)
Procedure: Binding of antibody was also assessed in a cell line that expresses endogenous human CD39 (e.g. the B-prolymphocytic leukemia cell line JVM-13). Thirty-five anti-CD39 antibodies as described in Example 2 were tested for their binding to JVM-13 cells. […] Median fluorescence intensities for each primary antibody concentration were used to derive a flow EC50/Kd using the one site—specific binding with Hill slope model in Prism (GraphPad Prism Software). Results are shown as Flow EC50 in Table 8.

[4] = molecular target: T1, human CD39 expressed on cells; test: cell-based or functional assay; remark: listed apart in the source
[5] = molecular target: T2, recombinant human CD39 (R&D Systems); test: BLI (Octet QK384); antibody on anti-mouse IgG Fc sensor, recombinant human CD39 in solution
Procedure: Additional binding assays were conducted. Affinity measurements of thirty-five purified anti-CD39 antibodies as described in Example 2 were carried out on the OctetQK384 sytem (ForteBio). After coating anti-mouse IgG Fc sensors with a purified anti-CD39 antibody, association and dissociation of recombinant human CD39 (R&D Systems) was monitored. Affinity (KD) and kinetic constants (ka and kd) were derived using ForteBio's software.

[6] = molecular target: T1, human CD39 expressed on cells; test: cell-based or functional assay; remark: listed apart in the source
[7] = molecular target: T2, recombinant human CD39 (R&D Systems); test: SPR (ProteOn XPR36); antibody captured by anti-mouse antibody, CD39 in solution, 1:1 fit
Procedure: as §1

% Inhibition of ATPase Activity in ARH-77 cells (antibody at 1200 ng/mL) [1]: -2.5% | Kd [2]: 1.25 nM | koff [2]: 0.000109 s⁻¹ | kon [2]: 87500 M⁻¹ s⁻¹ | EC50 [3]: 0.11 nM | % Inhibition of ATPase Activity in IM-9 cells (antibody at 1200 ng/mL) [4]: -0.1% | Kd [5]: 2.53 nM | koff [5]: 0.000196 s⁻¹ | kon [5]: 77400 M⁻¹ s⁻¹ | % Inhibition of ATPase Activity in HUVEC cells (antibody at 900 ng/mL) [6]: -9.8%
B1: anti-CD39 monoclonal antibody 5-165C (antibody, V domains shown)
VH: EVQLVESGGDLVKPGGSLKLSCAAFGFTFSRYGMSWVRQTPDKRLEWVATITSGGIYTYYPDSVKGRFTISRDNAKNTLYLQMSSLKSEETAMYYCARHGQFGDYYGMDYWGQGTSVTVSS
VL: DVVMTQTPLSLPVSLGDQASISCRSSQSLLHSNGNTYLHWYLQKPGQSPKLLIYKVSNRFSGVPDRFSGSGSGTDFTLKISRVEAEDLGVYFCSQSTHVPYTFGGGTKLEIK
notes: purified mouse hybridoma antibody, IgG2a isotype; also called R21-5-165C; R29-5-165C

% Inhibition of ATPase Activity in ARH-77 cells (antibody at 1200 ng/mL) [1]: 3.6% | EC50 [3]: 0.09 nM | Kd [7]: 0.09 nM | koff [7]: 1.4e-05 s⁻¹ | kon [7]: 153000 M⁻¹ s⁻¹ | Kd [5]: 0.73 nM | koff [5]: 5.22e-05 s⁻¹ | kon [5]: 71100 M⁻¹ s⁻¹
B2: anti-CD39 monoclonal antibody 5-71A (antibody, V domains shown)
VH: DVQLVESGGGLVQPGGSRKLSCAASGFTFSSFGMHWVRQAPEKGLELVAYISSGSTIRYYSDTVKGRFTISRDNPKNTLFLQMTSLRSEDTAMYYCARFLYEGFRYGMDYWGQGTSVTVSS
VL: B1 VL with V3L, L29I, L30V, H39E, V90I, F92Y, S94F, S96G, T97S, Y101N
notes: purified mouse hybridoma antibody, IgG2a isotype; also called R21-5-71A; R29-5-71A

% Inhibition of ATPase Activity in ARH-77 cells (antibody at 1200 ng/mL) [1]: -6.2% | EC50 [3]: 0.18 nM | Kd [7]: 1.16 nM | koff [7]: 0.000221 s⁻¹ | kon [7]: 191000 M⁻¹ s⁻¹ | % Inhibition of ATPase Activity in IM-9 cells (antibody at 1200 ng/mL) [4]: 0.8% | Kd [5]: 1.52 nM | koff [5]: 0.000159 s⁻¹ | kon [5]: 105000 M⁻¹ s⁻¹ | % Inhibition of ATPase Activity in HUVEC cells (antibody at 900 ng/mL) [6]: -4.4%
B3: anti-CD39 monoclonal antibody 5-13A (antibody, V domains shown)
VH: QVQLQQSGPELVKPGASVRISCKASGYTFTGYYVHWVKQRPGQGLEWIGWIYPGNVNTKYNEKFKAKATLTADKSSSTGYMQLSRLTSEDSAVYFCARSPYYGTTYYYTMDYWGQGTSVTVSS
VL: EIVLTQSPAFMAASPGEKVTITCSVSLIISSRNLHWYQQKSETSPKPWIYGTSNLASGVPVRFSGSGSGTSYSLTISSMEAEDAATYYCQQWSDYPLTFGSGTKLEIK
notes: purified mouse hybridoma antibody, IgG2a isotype; also called R21-5-13A; R29-5-13A

% Inhibition of ATPase Activity in ARH-77 cells (antibody at 1200 ng/mL) [1]: 36.5% | EC50 [3]: 0.26 nM | % Inhibition of ATPase Activity in IM-9 cells (antibody at 1200 ng/mL) [4]: 29.8% | Kd [5]: 3.1 nM | koff [5]: 0.000848 s⁻¹ | kon [5]: 273000 M⁻¹ s⁻¹ | % Inhibition of ATPase Activity in HUVEC cells (antibody at 900 ng/mL) [6]: 33.7%
B4: anti-CD39 monoclonal antibody 9-8B (antibody, V domains shown)
VH: QIQLVQSGPELKKPGETVKISCKASGYTFTHYGMNWVKQAPGKGLKWMGWINTYTGELTYADDFKGRFAFSLETSASTAYLQINNLKNEDTATYFCARRAYYRYDYVMDYWGQGTSVTVSS
VL: DIVMTQSQKFMSTSVGDRVSVTCKASHNVGTNVAWYQQKPGQSPKALIYSASYRYSGVPGRFTGSGSGTDFTLTISNVQSEDLAEYFCHQYNNYPYTFGGGTKLEIK
notes: purified mouse hybridoma antibody, IgG2a isotype; also called R21-9-8B; R29-9-8B
